# Measurements: article PMC3790000, “The Extended Transmembrane Orai1 N-terminal (ETON) Region Combines Binding Interface and Gate for Orai1 Activation by STIM1*^([image sbox.jpg])^♦” (The Journal of Biological Chemistry, 2013)
# B1: Orai1 N-terminal peptide aa77–91 (peptide, UniProt Q96D31-1 77-91, looked up)
# peptide: RKLYLSRAKLKASSR
# notes: also called Orai1 NT(aa77–91); Orai1 aa77–91; source: synthetic peptide, bought: peptide 2.0
# B2: Orai1 aa70–91 L74E/W76E N-terminal peptide (peptide, UniProt Q96D31-1 70-91, looked up)
# peptide: SMQAESERKLYLSRAKLKASSR
# notes: also called Orai1 NT(aa70–91 L74E/W76E); source: synthetic peptide, bought: peptide 2.0
# Target: T1, YFP-STIM1 233–485 (human, UniProt Q13586-1 233-485)
# T1 construct: the YFP fluorescence is the read-out of the thermophoresis; also called STIM1 233–485 C-terminal fragment; slightly extended OASF fragment; source: HEK293, transfected, in lysate (supernatant after Nonidet P40 lysis)
# Test: MST; monolith NT.115 (Nanotemper); YFP-STIM1 233–485 (or free YFP) in HEK293 cell lysate kept constant, Orai1 peptide varied, up to 16 dilutions, 5 min incubation, glass capillaries; curve fitted to a one-site binding model
# Settings: one partner purified
# T1 sequence (Q13586 233-485): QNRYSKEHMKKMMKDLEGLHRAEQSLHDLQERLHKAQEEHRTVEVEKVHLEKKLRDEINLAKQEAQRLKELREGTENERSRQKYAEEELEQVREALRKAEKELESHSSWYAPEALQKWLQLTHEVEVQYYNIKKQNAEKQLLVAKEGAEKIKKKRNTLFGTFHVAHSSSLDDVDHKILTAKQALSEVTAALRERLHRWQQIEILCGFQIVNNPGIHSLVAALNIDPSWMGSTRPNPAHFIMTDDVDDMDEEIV
row,Binder,Kd
1,B1,> 4700 µM
2,B2,406 ± 68 µM
